Measured values reported in patent publication US20110009319A1.

Tests used:
activin-A = activin-A (UniProt P08476); assay: cell-based or functional assay
TGF-b1 = TGF-b1 (UniProt P01137); assay: cell-based or functional assay
Chain of TGF-b1 (P01137 279-390 limits assumed): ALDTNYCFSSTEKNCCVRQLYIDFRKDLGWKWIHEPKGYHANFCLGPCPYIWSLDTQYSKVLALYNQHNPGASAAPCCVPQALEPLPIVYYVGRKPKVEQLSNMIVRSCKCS

Chain of activin-A (P08476 311-426): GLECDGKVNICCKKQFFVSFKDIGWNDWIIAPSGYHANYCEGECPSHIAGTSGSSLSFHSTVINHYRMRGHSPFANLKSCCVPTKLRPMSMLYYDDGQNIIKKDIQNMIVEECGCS

3TP-lux luciferase expression induced by activin-A in HepG2 cells (fold reduction) (activin-A): 4
3TP-lux luciferase expression induced by TGF-b1 in HepG2 cells (fold reduction) (TGF-b1): 4
FAST2/A3-luciferase induction by 100 pM TGF-b1 in 293T cells (fold reduction) (TGF-b1): 3
Substance: wild type mouse Cripto (from UniProt P51865 18-134) (receptor)
